Data as given in the nanobody polyreactivity screen of Harvey et al. (2022).

Experiment: yeast display, Sf9 membrane polyspecificity reagent, FACS + sequencing; frameworks hold sequencing errors
How it was run: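 In a synthetic yeast display library (Saccharomyces cerevisiae BJ5465), nanobody expression was induced with galactose for 36–48 hours. FACS gates were set low and high (top ~1%) using anti-HA fluorescence for expression and streptavidin fluorescence for binding of the Sf9 membrane reagent. Each polyreactivity label is drawn from the gate of origin.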

Sequence	polyreactivity (PSR sort gate)
QVQLVESGGGLVQAGGSLRLSCAASGFTFRWYTMGWYRQAPGKERELVAAISWSGTSTYYADSVKGRFTISRDNAKNIVYLQMNSLKPEDTAVYYCAAADFYYTGADDYWGQGTQVTVSS	high polyreactivity
QVQLVESGGGLVQAGGSLRLSCAASGFTFYYYAMGWYRQAPGKERELVAAISISGASTYYADSVKGRFTISRDNAKNTVYLQMNSLKPEETAVDYCAKRTKGYTYHHEYGYWGQGTQVTVSS	low polyreactivity
QVQLVESGGGLVQAGGSLRLSCAASGSISTVYAMGWYRQAPGKEMELVAAISWSGGSTYYADSVKGRFTISRDNAKNTVYLQMNSLKPEDTAVYYCAAEGYLVGSRWGPRYGDYWGQGTQVTVSS	high polyreactivity
QVQHVESGGGLVQAGCSLRLSCAASGRIFKPYVMGWYRQAPGKETELVSAISWSGGASTYYADSVKGRFTISRDNAKNTVYLQMNSLKPEDTAVYYCAADPFTIPTSEFYYWGQGTQVTVSS	low polyreactivity
QVQLVESGGGLVQAGGSLRLSCAASGRIFRSNAMGWYRQAPGKERELVATITSSGGRTYYADSVKGRFTISRDNAKNTVYLQMNSLKPEDTAVYYCNAQQRTRGQKAQWVRDEYWGQGTQVTVSS	low polyreactivity
QVQLVESGGGLVQAGCSLRLSCAASGITFVPYAIGWYRQAPGKDRELVAAITGGGSTNYADSVKGRFTISRDNAKNTVYLQMNSLNQEDTAVYYCAKHAYGYYYSRSDYWGQGTQVTVSS	low polyreactivity
QVQLVESGGGLVQAGGSLRLSCAASGRTFYGNAMGWYRQAPGKERELVAAITTGGGNTYYADSVKGRFTISRDHAKNTVYLQMNRLKPEDTAVYYCAAYERKFYTVSRWYKLDYWGQGTQVTVSS	high polyreactivity
QVQLVESGGGLVQAGGSLRLSCAASGSTFYYYAMGWYRQAPGKERELVAAITISGGSTYADSVKGRFTISRDNAKNTVYLQMNSLKPEDTALYYCAAYSGVGYLWFDYWGQGTQVTVSS	low polyreactivity
QVQLVESRGGLVQAGGSLRLSCAASGNTFYGYAMGWYRPAPGKERELVASITLSGDSTYYADSVKGRFTISRDNAKNTVYLQMNSLKPEDTAVYYCAGVYTYPLGYYHYTYDYWGQGTQVTVSS	low polyreactivity
QVQLVESGGGLVQAGGSLRLSCAASGSIFGPYAMGWYRQAPGKERELVAAITSGGSTYYADSVKGRFTISRDNAKNTVYLQMNSLKPEDTAVYYCNAESYFWDFYDYDHWGQGTQVTLSS	low polyreactivity
QVQLVESGGGLVQEGGSLRLSCAASGFIFSFYVMGWYRQAPGKERELVAAISTSGASTYYADSVKGRFTISRDNAKNTVYLQMNSLKQEDTAVYYCNVVYRYGGYIYWGQGTQVTVSS	high polyreactivity
QVQLVESGGGLVQAGGSLRLSCAASGFTFGFYAMGWYRQAPGKERELVAAITSGGGTTYYADSVKGRFTISRDNAKNTVYLQMNSLKPEYTAVYYCNADPDVPFFSWLTGRGTYDYWGQGTQVTVSS	low polyreactivity
QVQLVESGGGLVQAGGSLRLSCAASGSNFDIYGMGWYRQAPGKERELVASISGGAGSTNYADSVKGRFTISRDNAKNTVYLQMNSLKPEDTAVYYCAAEVYVPDSFQHKFDVEYEYWGQGTQVTVSS	low polyreactivity
QVKLVESGGGLVQAGGSLRLSCAASGRIFYGYTMVWYRQAPGKERELVAAISSSGGSTYYADSVKGRFTISRDNAKNTVYLQMISLKPEDTAVYYCAAYVPYSPYHVEFNYWGQGTQVTVSS	high polyreactivity
QVQLVESGGGLVQAGGSLRLSCAASGGIFPAYAMGWYRQAPGKERELVASISANGGRTYYADSVKGRFTISRDNAKNTVYLQMNSLKPEDTAVYYCNASSRSGSWRFYYWGQGTQVTVSS	high polyreactivity
QVQLVESGGGVVQAGGSLRLSCAASGRTSYWYAKGCYRQAPGKERELVADISWSGGSTYYADSVKGRFTISRDNAKNTVYLQMNSMKPEDTAVYYCNAAEQKYSIYYAFDTGPYDYWGQGTQVTVSS	low polyreactivity
QVQLVESGGGLVQAGGSLRLSCAASGFTISAYAMGWYRQAPGKERELVAAITSGGGSTRYADSVKGRFTISRDNAKNTVYLQMNSLKPEDTAVYYCAARNHRYKFNYWGQGTQVTVSS	high polyreactivity
QVQLVESGGGLVQAGGSLRLSCAASGRIFRAYTMGWYRQAPGKERELVAAITWRGGRTYYADSVKGRFTISRDNAKNTVYLQMNSLKPEDTAVYYCAAVRKYRAMDYWGQGTQVTVSS	high polyreactivity
QVQLVESGGGLVQAGGSLRLSCAASGSTFRFYAMGWYRQAPGKERELVAGITGSGDSTYYADSVKGRFTISRDNAKNTVYLQMNSLKPEDTAVYYCNKRFLFAGFDYLGQGTQVTVSS	low polyreactivity
QVQLVESGGGLVQAGGSLRLSCAASGIIFKLYAMGWYRQAPGKEREFVATITKTGGRTYYADSVKGRFTISRDNAKNTVYLQMNSLKPEDTAVYYCAARRVNGKMYYWGQGTQVTVSS	high polyreactivity
QVQLVESGGGLVQAGGSLRLRCAASGSNFVSYAMGSYRQAPGKERELVATITTSTGSTYADSVKGRFTISRDNAKNTVYLLMYSLKPEDTAVYYCAARYLPWLKYDFDSWGQGTQVTVSS	low polyreactivity
QVQLVESGGGLVQAGGSLRLICAASGSTFSAYVMGWYRQAPGKERKLVAAITRSGVSTYYADSVKGRFTISRDNAKNTVYLQMNSLKPEDTAVYYCARRAKGAYWNEYNYWGQGTQVTVSS	high polyreactivity

Sequence	polyreactivity (PSR sort gate)
QVQLVESGGGLVQAGGSLRLSCAASGGIFGYYAMGWYRQAPGKEREFVAAISVSGGSTYYADSVKGRFTISRDNAKNTVYLQMNSLKPEDTAVYYCAADVIVLRPGEYDYWGQGTQVTVSS	low polyreactivity
QVQLVESGGGLVQAGGSLRLSCAASGRNFSRYALGWYRQAPGKERELVAAINNGGSTYYADSVKGRFTISRDNAMNTVYLQMNSLKPEDTALYYCAKLWWSNFKPVEYWGQGTQVTVSS	low polyreactivity
QVQLVESGGGLVQAGGSLRLSSAASGRTLIWYTMGWYRPAPGKERELVAAITSGGSTYYADSVKGRFTISRDNAKNTVYLQMNSLKPEDTAVYYCNARSAFWGWGYGSYDYWGQGTQVTVSS	low polyreactivity
QVQLVESGGGLVQAGGSLRLSCAASGFIFAFYAMGWYRQAPGKERELVAAISLSGGSTYYADSVKGRFTISRDNAKITVYLQMNSLKPDDTAVYYCAASRYKFYYWGQGTQVTVSS	high polyreactivity
QVQLVESGGGLVQAGGSLRLSCAASGRIFDENAMGWYRQAPGKERELVATISSSGVSTSYADSVKGRFTISRDNAKNTVYLQMNSLKPEDTAVYYCNAGYRRRYKFVYWGQGTQVTVSS	low polyreactivity
QVQLVESGGGLVKAGGSLRLSCAASGSTFRRYAMGWYRLAPGKERELVAAITIGGSTYYADSVKGRFTISRDNAKNTVKLKMNSLKPEDTAVYSCNAGKTYLGDYWGQGTQVTVSS	high polyreactivity
QVQLVESGGGLVQAGGSLRLSCAASGFTFGRNAMGWYRPAPGKEMELDATISKSGGSTYYEDSVKGRFTISRDNAKNTVYLQMYSLKPEDSAVYYCAARSRRLPGDYWGQATQVTVSS	low polyreactivity
QVQLVDSGGALVQAGGSLRLSCAASGSTFAYYAMGWYRQAPGKERELVAAITASATNTYYADSVKGRFTISRDNAKNTVYLQMNSLKPEDTAVYYCAADDVDVEHQASWDDYDSWGQGTQVTVSS	low polyreactivity
QVQLVESGGGLVQAGGSLRLSCAASGSIFSWNARGCYRQAPGKERELVAGITWSGGGTSYADSVKGRFTISRDNAKNTVYLQMNSLKPEDTAVYYCAKEWIFDFNYWGQGTQVTVSS	low polyreactivity
QVQLVESGGGLVQEGGSLRLSCAASGSTFYPNAMGWYRQAPGKERELVAAISSSGGSTYYADSVKGRFTISRDNAKNTVYLQMNSLKPEDTAVYYCNKRWFRDYDYWGPGTQVTVSS	high polyreactivity
QVQLVESGGGLVQAGVSLRLSCAASGLIFGQNAMGWYRQAPAKERELVAAISQRGGTYYADSVKGRFTISRDNSKNTVYLQMNSLKPEDTAVYYCAARVGLQPGRYYLRYDYWGQGTQVTVSS	low polyreactivity
QVQLVDSGGGLVQAGGSLGLSCAASGSIFRNYAMGWYRQAPGKERELVAAISYRVGRTYYADSVKGRFTISRDNAKNSVYLQMNSLNPEDTAVYYCAADSRSPGHDYWGQGTQVTVSS	low polyreactivity
QVQLVESGGGLVQAGGSLRLSCAASGLTFVFYAMGWYRQAPGKERELVAAISRRGGRTYYADSVKGRYTISRDNAKNTVYVQMNSLKPEDTAVYYCNARVRSHRCNYWGQGTQVTVSS	high polyreactivity
QVQLEESGGGLVQAGGSLRLSCAASGFIFLDYAMGWYRQAPGKERELVAAISSRGARTYYADSVKGRFTISRDNAKNTVYLQMNSLKPEDTAVYYCAARGPLDRYGYWGQGTQVTVSS	high polyreactivity
QVQLVESGGGLVQAGGSLRLSCAASGFTFGRYAMGWYIQAPGKERELVAAINWSGTSTYYADSVKGRFTISRDNSKNTVYLQLNILKPEDTAVYYCAVRESGYHTTLYYWGQGTQVTVSS	high polyreactivity
QVQLVESGGGLVQAGGSLRLSCAASGFIFKRYAMGWNRQAPGKVRELVAAITSRGGSTYYADSVKGRFTISRDNAKNTVYLQMNSLKPEDTAVYYCNAGTSAGSYDYWGQGTQVTVSS	high polyreactivity
QVQLVESGGGLVQAGGSLSLSCAASGSTFIHNAMGWYRQAPGKERELVAAITSGGSTYYADSVKGRFTISRDNAKNTVYLQMNSLKPEDTAVYYCNRVSWRYSTMEYWGHGTQVTVSS	high polyreactivity
QVQLVESGGGLVQAGGSLRLSCAASGFIFRRYAMGWYRQAPGKDRALVAAITIGGSTSYADSVKGRFTISRDNAKKTVYVQMNSLKPEDTAVYYCNAGSFSRKARRYDYWGQGTQVTVSS	high polyreactivity
QVQLADSGGGLVQAGGSLRLICAASGSIIRNKAMGWYRQAPGKERELVAAITSTGTGTYYADSVKGRFTISRDYAKNTVYLQMNRVKPEDPAVYYCAVDDEFEFGYWGQGTQVTVSS	low polyreactivity
QVQLVESGGGLVQAGGSLRLSCAASGSIFNSYAMGWSRQAPGKERELVAAISSGGGRTYYADSVKGRFTISRDNAKNTVYLQMNSLKPEDTAVYYCNARAVYRFDYWGQGTQVTVSS	high polyreactivity
QVQLVESGGGLVQAGGSLRLSCAASGSIFAVNAMGLYRQAPGKERELVATITGRDGSTYYADSVKGRFTISRDNAKNTVYLQMNRLKPEDTAVYYCTARRKRTYDYWGQGTQVTVSS	high polyreactivity
